“And” between values parts separate entries of the source, which are not always exact repeats. Identical values can stand only once.

Common to all, as to test: EMSA
In general terms: A gel shift assay detects complexes by their altered migration in electrophoresis.

Data set [1] has as its target T1, dMi-2 WT (UniProt O97159 1-1982).
Data set [2] addresses T1, dMi-2 WT. This is another data set of the same source.
Another data set deals with T2, dMi-2 (118-238) (UniProt O97159 118-238).
T2 sequence: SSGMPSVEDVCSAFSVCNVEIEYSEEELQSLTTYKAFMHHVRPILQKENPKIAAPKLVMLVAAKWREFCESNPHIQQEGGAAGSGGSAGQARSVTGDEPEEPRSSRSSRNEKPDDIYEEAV

T1 sequence (O97159 whole entry): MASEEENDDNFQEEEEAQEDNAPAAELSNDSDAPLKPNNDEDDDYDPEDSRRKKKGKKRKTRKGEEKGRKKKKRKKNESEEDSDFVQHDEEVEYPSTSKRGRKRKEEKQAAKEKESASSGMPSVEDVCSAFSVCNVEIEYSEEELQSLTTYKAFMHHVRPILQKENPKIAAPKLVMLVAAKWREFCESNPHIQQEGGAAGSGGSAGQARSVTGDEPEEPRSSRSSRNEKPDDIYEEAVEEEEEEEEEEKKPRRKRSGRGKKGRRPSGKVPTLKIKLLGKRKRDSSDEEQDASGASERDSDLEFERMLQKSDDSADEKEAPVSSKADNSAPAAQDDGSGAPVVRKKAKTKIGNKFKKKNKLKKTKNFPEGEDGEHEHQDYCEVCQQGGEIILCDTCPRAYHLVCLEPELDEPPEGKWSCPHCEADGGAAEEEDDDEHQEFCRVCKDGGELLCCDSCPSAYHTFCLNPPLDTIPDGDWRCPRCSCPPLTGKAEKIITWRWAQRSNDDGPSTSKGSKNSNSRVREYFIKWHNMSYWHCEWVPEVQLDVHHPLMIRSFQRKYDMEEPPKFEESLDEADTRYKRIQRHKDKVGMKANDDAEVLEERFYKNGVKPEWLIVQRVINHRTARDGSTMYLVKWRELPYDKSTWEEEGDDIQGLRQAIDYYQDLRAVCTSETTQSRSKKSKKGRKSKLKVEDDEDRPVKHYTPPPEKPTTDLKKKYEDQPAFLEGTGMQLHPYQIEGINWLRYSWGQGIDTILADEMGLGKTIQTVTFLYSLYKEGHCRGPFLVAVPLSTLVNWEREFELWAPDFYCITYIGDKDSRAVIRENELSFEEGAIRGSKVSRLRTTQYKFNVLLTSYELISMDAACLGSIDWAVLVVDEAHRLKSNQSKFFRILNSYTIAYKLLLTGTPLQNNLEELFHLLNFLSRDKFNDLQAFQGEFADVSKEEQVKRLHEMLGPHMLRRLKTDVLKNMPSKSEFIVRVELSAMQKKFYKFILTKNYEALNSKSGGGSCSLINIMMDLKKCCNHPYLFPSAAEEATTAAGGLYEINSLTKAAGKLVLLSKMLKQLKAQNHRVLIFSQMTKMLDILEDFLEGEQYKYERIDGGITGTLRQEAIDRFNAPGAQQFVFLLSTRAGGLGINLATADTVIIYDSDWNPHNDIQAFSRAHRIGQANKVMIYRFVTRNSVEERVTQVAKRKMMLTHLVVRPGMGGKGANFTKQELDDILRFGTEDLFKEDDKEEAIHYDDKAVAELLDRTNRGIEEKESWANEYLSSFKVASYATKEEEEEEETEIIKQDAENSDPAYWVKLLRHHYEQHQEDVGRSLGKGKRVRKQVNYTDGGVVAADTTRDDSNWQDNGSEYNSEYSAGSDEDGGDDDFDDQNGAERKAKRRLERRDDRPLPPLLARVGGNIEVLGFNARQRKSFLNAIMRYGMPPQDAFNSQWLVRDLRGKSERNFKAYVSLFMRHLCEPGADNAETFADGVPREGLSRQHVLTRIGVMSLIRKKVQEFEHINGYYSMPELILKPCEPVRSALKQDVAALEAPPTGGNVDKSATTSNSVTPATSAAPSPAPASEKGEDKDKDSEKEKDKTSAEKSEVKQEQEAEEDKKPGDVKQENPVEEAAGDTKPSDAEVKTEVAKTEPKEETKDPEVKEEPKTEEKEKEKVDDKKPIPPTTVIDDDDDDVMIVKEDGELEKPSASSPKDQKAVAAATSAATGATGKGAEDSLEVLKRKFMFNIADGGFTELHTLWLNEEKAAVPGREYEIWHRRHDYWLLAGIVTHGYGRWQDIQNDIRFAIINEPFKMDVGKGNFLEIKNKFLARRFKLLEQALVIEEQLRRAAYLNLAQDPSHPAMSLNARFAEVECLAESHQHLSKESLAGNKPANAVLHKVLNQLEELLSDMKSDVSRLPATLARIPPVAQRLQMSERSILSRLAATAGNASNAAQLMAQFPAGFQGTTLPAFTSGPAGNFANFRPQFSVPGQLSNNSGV

B1: Pgant35a #5 RNA (ssRNA)
RNA: AAGUGCCACGAGAUGCUCGGCGAUCAGCAGUGGCGGCACACCCGCAACGCCAACAGUCCCGUCUACAACAUGGCCAAAGGCACCUGCCUCCGGGCAGCUG
As to B1, the binding result with dMi-2 WT [1] is listed as “binds”.

One may read the Kd as the free concentration of one partner at which half of the binding sites on the other are occupied at equilibrium, for simple one-to-one binding. High values mean weaker binding, low ones tighter binding. GAGAGAGAGAGAGAGAGAGAGAGAGAGAGAGAGAGAGAGA (ssRNA) [(GA)20 RNA]: the equilibrium dissociation constant (Kd) with dMi-2 WT [2] was 70 nM and 80 nM.

B2: Hsp70Aa #1 RNA (ssRNA)
RNA: CUCACACACAAUGCCUGCUAUUGGAAUCGAUCUGGGCACCACCUACUCCUGCGUGGGUGUCUACCAACAUGGCAAGGUGGAGAUUAUCGCCAACGACCAG
Consider B2, for which the binding result with dMi-2 WT [1] is given as “binds”.

B3: Pgant35a #4 RNA (ssRNA)
RNA: CUGCAUGUGCCGGGCGAGGAGUCCAAGAAGUCGGCGGCAGCGCCCAUCUUUCAGCCUUGGCACUCGCGAAAACGUAACUAUGUCGACACAUUCCAGCUGC
For B3, the binding result in the data set with dMi-2 WT [1] was “binds”. AAAAAAGGGGAAAAGGGGAAAAGGGGAAAAGGGGAAAAAA (structured_RNA) [(G4A4)4 RNA]: the equilibrium dissociation constant (Kd) with dMi-2 WT [2] came to 80 nM.

B4: Pgant35a #2 RNA (ssRNA)
RNA: UCUUCCGGGCGAUCCCAGACACUCGGCACAAGGUGUGCGAUCGCCAGGAGACCACGGAAGCGGAAAAUCUGCCCCAGGCCUCCAUAGUCAUGUGCUUCUA
Turning to B4, the binding result with dMi-2 WT [1] was “binds”.

B5: Hsp70Aa dsDNA (dsDNA)
DNA 1: not shown
DNA 2: not shown
In the data set with dMi-2 WT [2], B5 returned a Kd of 820 ± 100 nM.

B6: Pgant35a #3 RNA (ssRNA)
RNA: GUCAUUGGUGCACGCGAGGCCGUGGGCGAUGUGCUCGUCUUCCUCGACUCGCAUAUCGAGGUCAAUCAGCAGUGGCUGGAGCCGCUGCUGCGCCUCAUCA
In the data set with dMi-2 WT [2], B6 returned a Kd of 630 ± 280 nM.

B7: Hsp70Aa #5 RNA (ssRNA)
RNA: GCAGGCCGAGAUUGAUCGCAUGGUGAACGAGGCUGAAAAGUACGCCGACGAGGACGAGAAGCAUCGCCAGCGAAUAACCUCUAGAAAUGCCCUGGAGAGC
For B7, the binding result with dMi-2 WT [1] is “binds”. With CCUACGGACUGGACAAGAACCUCAAGGGUGAGCGCAAUGU (ssRNA) [Hsp70Aa #6 RNA], the Kd with dMi-2 WT [2] came to 310 ± 100 nM. Besides, the binding result with dMi-2 (118-238) was “no binding”.

B8: Hsp70Aa dsRNA (dsRNA)
RNA 1: not shown
RNA 2: not shown
Take B8: binding with dMi-2 WT [2] was characterised by a dissociation constant (Kd) of 860 ± 100 nM.

B9: Pgant35a #1 RNA (ssRNA)
RNA: UCGGCAGGAUGGAGGAUCGACGAAGGGAACGCAACGCCACGGGCCGAGCUGAGCUACCAGGCCAGGGUCACCGUCGGAUGCACUCCAAAUGCCAGCAUUA
Turning to B9, the binding result in the data set with dMi-2 WT [1] is “binds”.

B10: Hsp70Aa #2 RNA (ssRNA)
RNA: GAGGACAUGAAGCACUGGCCUUUCAAGGUUGUAAGCGACGGCGGAAAGCCCAAGAUCGGGGUGGAGUAUAAGGGUGAGUCCAAGAGAUUUGCCCCCGAGG
In the case of B10, the binding result in the data set with dMi-2 WT [1] is reported as “binds”.

The values above are taken from article doi:10.1101/2021.06.03.446896.
